Consider 72 sequences from the supplement of paper PMC10567573.

± gives the standard deviation.

This series can be described thus: protein stability index of a GFP-peptide fusion (GPS, HEK-293T) (PSI 1-6); higher = more stable.
[1] abbreviates: treatment: DMSO, c terminus: a fixed tail appended.
[2] abbreviates: treatment: MLN4924 1 uM, 8 h, c terminus: a fixed tail appended.
The mark [3] stands for this setting: treatment: MLN4924 1 uM, 8 h, c terminus: native.
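Note: 24-mer peptide tiles fused after GFP, lentivirally expressed, FACS-sorted into six equal bins by GFP/DsRed ratio, decoded by Illumina sequencing, PSI is the read-weighted mean bin number.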

For AAFEEFDTDRDGYISHRELGDCMR [CABP4], the protein stability index by setting is: under setting [1], 4.25 ± 0.17; under setting [2], 4.3 ± 0.36. As to AALCALGKDCFLELAPDFVGDILW [ETS1], the protein stability index was found to be 2.51 ± 0.41 under setting [1] and 2.95 ± 0.77 under setting [2].

AAQEGEDEGASAGQGPKPEADSQE [GAGE1] gave a protein stability index under setting [1] of 5.67 ± 0.17 and a protein stability index under setting [2] of 5.64 ± 0.24. AASPQDLAGGYTSSLACHRALQDA [MNAT1]: the protein stability index is 4.21 ± 0.25 under setting [1] and 4.24 ± 0.37 under setting [2]. The matching figures for AASSYSFSDLNSTRGDADMYDLPK [EMD]: 4.43 ± 0.23 and 4.53 ± 0.26. In the case of ACLLQLAEIQEACCEFLKRQLDPS [KLHL20], the protein stability index turned out to be 2.32 ± 0.58 under setting [1] and 2.16 ± 0.053 under setting [2].

ADEQLHCAGKAKRSGGHAPRVREL [ESR2] came in with a protein stability index under setting [1] of 4.45 ± 0.26 and a protein stability index under setting [2] of 4.39 ± 0.3. With AECALNERGVEGDFLIRDSESSPS [NCK2], the protein stability index is 5.42 ± 0.33 under setting [1] and 5.48 ± 0.2 under setting [2]. Regarding AEQLRIELNAEKFKNSLLQKELKK [WEE1], the protein stability index under setting [1] was found to be 3.88 ± 0.28 and the protein stability index under setting [2] stood at 3.94 ± 0.42. AESLKGKLEEERAKLHDVELHQVA [GNB5] yielded a protein stability index under setting [1] of 5.02 ± 0.33 and a protein stability index under setting [2] of 5.23 ± 0.29.

In the case of AFPFNMQELVLKVRIQNPSLREND [ANKRD40], the protein stability index stood at 2.41 ± 0.46 under setting [1] and 2.33 ± 0.41 under setting [2]. Consider AFQNDVYEWARDHRAHHKFSETHA [SCD], for which the protein stability index is 2.65 ± 0.22 under setting [1] and 2.69 ± 0.33 under setting [2].

As to AFSNRSKQLRRQMWWRGCKIKAIM [VAMP4], the protein stability index is, setting by setting: under setting [1], 2.35 ± 0.082; under setting [2], 2.44 ± 0.27. For AGEGRLGHKRKQPLPKRVAKVPRP [FOXJ1], the protein stability index runs as follows: under setting [1], 4.53 ± 0.45; under setting [2], 4.36 ± 0.43.

In the case of AGGEKGPQAFPMSRLWDSRLRHYL [DNAAF3], the protein stability index by setting is: under setting [1], 2.12 ± 0.077; under setting [2], 2.54 ± 0.065. For the sequence AGRLMRPSVKYLSHPRVQSGCDKE [RNF180], the protein stability index under setting [1] was 4.06 ± 0.21 and the protein stability index under setting [2] was 4.11 ± 0.21. AGRWLWGAQPCLLLPIVPLSWLVW [ADAMTS4]: the protein stability index came out at 2.98 ± 1.5 under setting [1] and 3.24 ± 2.6 under setting [2]. As for AGSSTWERYFIPVSCFLTFNIFDW [SLC29A1], the protein stability index was 3.09 ± 0.2 under setting [1] and 3.05 ± 0.58 under setting [2]. The corresponding values for AHHRSGAQVFPESPESESDHEHEE [GNAS] are 5.63 ± 0.24 and 5.54 ± 0.26. The matching figures for AIFSAPAFPAAVSSMKKFCRPLLP [PSD2]: 2.58 ± 0.12 and 2.3 ± 0.28. The sequence AILYYYQSGGRLRRPVNVPLDMFS [KCNA1] gave a protein stability index under setting [1] of 2.69 ± 0.84 and a protein stability index under setting [2] of 2.29 ± 0.42. On to AISVVGVSAGGHTLSRPPPAQVPR [TFE3], for which the protein stability index is, setting by setting: under setting [1], 3.38 ± 0.24; under setting [2], 3.35 ± 0.24.

As to AKKFRKAVTDLLGRRQRKSEKRRD [WASL], the protein stability index under setting [1] turned out to be 3.88 ± 0.52 and the protein stability index under setting [2] was found to be 3.89 ± 0.2. As for ALAGYTGSGPIQLWQFLLELLTDK [ETS1], the protein stability index under setting [1] was found to be 2.35 ± 0.13 and the protein stability index under setting [2] turned out to be 2.48 ± 0.31. The matching figures for ALARDLLSETADPFFVLNSDVICD [GMPPB]: 3.07 ± 0.069 and 3.32 ± 0.26.

As for ALFFKNIMNIIDIVSILPYFITLG [KCNA4], the protein stability index was 2.86 ± 0.21 under setting [1] and 3.43 ± 0.4 under setting [2]. Turning to ALIDRPAPYFERSSSKRYTMSRSL [EPB41L3], the protein stability index runs as follows: under setting [1], 2.8 ± 0.31; under setting [2], 3.12 ± 0.58.

For ALKHYVESASSQSGCLRISIQKLS [NECAB1], the protein stability index is, setting by setting: under setting [1], 2.05 ± 0.12; under setting [2], 2.18 ± 0.28.

On to APAFRLSLKAKVSDNMSHLMVDFA [FSD1], for which the protein stability index reads like this: under setting [1], 2.28 ± 0.1; under setting [2], 2.25 ± 0.12.

On to APAPAPASSGQHHDFLSDLFSDDY [CEBPB], for which the protein stability index was found to be 5.13 ± 0.29 under setting [1] and 5.14 ± 0.16 under setting [2]. On to APGIGPPEPWPGGCTGDEAESRGH [MYCL], for which the protein stability index by setting is: under setting [1], 4.97 ± 0.55; under setting [2], 5.51 ± 0.23. Consider APGSASSSKVSGVLKKLAQSRRTA [YJU2B], for which the protein stability index under setting [1] came out at 3.81 ± 0.3 and the protein stability index under setting [2] stood at 3.87 ± 0.34. As for APRLLKREPDWGDGDAPGSLLPAQ [CEBPD], the protein stability index under setting [1] worked out at 4.87 ± 0.43 and the protein stability index under setting [2] came to 5.03 ± 0.37.

For the sequence AQIDQYVGLVTNQLSHIKAKIRAK [RTN2], the protein stability index is 2.7 ± 0.3 under setting [1] and 2.75 ± 0.28 under setting [2]. With AQKESLQNQHHSASLQASIFSGAA [APBB1IP], the protein stability index stood at 4.03 ± 0.22 under setting [1] and 3.98 ± 0.26 under setting [2].

As to AQNACSEHGATLAVIDSEKDMNFL [CD69], the protein stability index is, setting by setting: under setting [1], 4.62 ± 0.29; under setting [2], 4.78 ± 0.27. As for AQRHRGSAKDGGPQPPDAPQLVSS [PLEKHN1], the protein stability index stood at 5.04 ± 0.51 under setting [1] and 5.22 ± 0.28 under setting [2]. The matching figures for ARSESVLLHMPQPVNPELTAGPIT [TRIM43]: 4.31 ± 0.061 and 4.41 ± 0.078. In turn, ASHSLSPSEHVQGKSPVNMVTVAM [ZNF649] had a protein stability index under setting [1] of 3.3 ± 0.29 and a protein stability index under setting [2] of 3.21 ± 0.35. The sequence ASMAPAAALPPVPSPPAAPSVADN [SERTAD1] displayed a protein stability index under setting [1] of 5.3 ± 0.13 and a protein stability index under setting [2] of 5.31 ± 0.42. Sequence ASSASEPQGLFVEALSVPLSLCVS [CLPTM1] returned a protein stability index under setting [1] of 2.31 ± 0.2 and a protein stability index under setting [2] of 2.25 ± 0.36. Sequence ASSPGNPTALANGTVQAPKQKGD [LPCAT4] came in with a protein stability index (treatment: DMSO, c terminus: native) of 5.31 ± 0.21 and a protein stability index under setting [3] of 5.22 ± 0.35. In the case of ASSPYISSVQSYPGSASLAQSRLE [DLX1], the protein stability index reads like this: under setting [1], 3.92 ± 0.18; under setting [2], 4.13 ± 0.14. The corresponding values for ATPGGGTGEAARPHKGLNLHPLLS [PCDHGC5] are 3.74 ± 0.17 and 3.83 ± 0.21. On to ATYIFIFIGETLLSMNWAIVADIL [SPNS1], for which the protein stability index is, setting by setting: under setting [1], 3.13 ± 0.39; under setting [2], 2.68 ± 0.74.

On to AVEDGLQQFKQYSRHVTTRAALTY [M1AP], for which the protein stability index is 3.14 ± 0.42 under setting [1] and 3.1 ± 0.23 under setting [2]. For AVSCVFLAFVIVLLAHRLRRWHKS [PCDHGA10], the protein stability index turned out to be 2.33 ± 0.36 under setting [1] and 1.92 ± 0.23 under setting [2]. In the case of AVTLRCGHNFCRGCVSRCWEVQVS [TRIM35], the protein stability index reads like this: under setting [1], 2.62 ± 0.12; under setting [2], 2.33 ± 0.43.

AVTPAGVVNKYQINGLQAWLLTHL [DHCR7] displayed a protein stability index under setting [1] of 2.19 ± 0.23 and a protein stability index under setting [2] of 2.15 ± 0.16. The sequence AVVSQMDQEQGSSFQMSEGSEAAV [FAM189A2] displayed a protein stability index under setting [1] of 5.46 ± 0.29 and a protein stability index under setting [2] of 5.44 ± 0.17. AWKHGNIHLSAPCIYSEVMEALKL [PCMTD1] had a protein stability index under setting [1] of 2.28 ± 0.34 and a protein stability index under setting [2] of 2.14 ± 0.33. As for AWVANFERPRMNANSLLASPTGLS [CRY1], the protein stability index was 2.64 ± 0.5 under setting [1] and 2.97 ± 0.37 under setting [2]. The corresponding values for CAIASGSELSESAFGYFITACAVI [SLC29A1] are 3.37 ± 0.67 and 3.12 ± 0.34. The corresponding values for CAIQASLNQGSVFQEYDTDCEVFR [ZNF449] are 2.79 ± 0.82 and 2.67 ± 0.48. Consider CAVLDDSIYLVGGYSWSMGAYKSS [KLHL14], for which the protein stability index by setting is: under setting [1], 2.52 ± 0.64; under setting [2], 2.17 ± 0.64. Regarding CDECGKIFSQSSALILHQRIHSGK [ZNF396], the protein stability index runs as follows: under setting [1], 5.51 ± 0.39; under setting [2], 5.51 ± 0.11. Regarding CHECGKKFSQNSHLIKHRRTHTGE [ZNF75A], the protein stability index is, setting by setting: under setting [1], 5.19 ± 0.29; under setting [2], 4.72 ± 0.25. In the case of CKVFGIHKACEVAPLQSVFQGQKT [TRIM63], the protein stability index under setting [1] was 2.81 ± 0.26 and the protein stability index under setting [2] is 2.96 ± 0.39.

CLHMFLQDEIIDKSYTPSKIRHA [SNX3] registered a protein stability index under setting [3] of 2.77 ± 0.46. With CLVFELLSYNLYDLLRNTHFRGVS [DYRK1B], the protein stability index by setting is: under setting [1], 2.95 ± 0.3; under setting [2], 3.3 ± 0.16.

As to CRDGEVLLRLSKHGPGHETPMTIP [ACSBG2], the protein stability index turned out to be 2.62 ± 0.4 under setting [1] and 2.66 ± 0.63 under setting [2]. Turning to CREQLDIMNDLSNRVWSISQEPDP [TRIM14], the protein stability index was 3.43 ± 0.28 under setting [1] and 3.43 ± 0.21 under setting [2]. In the case of CRFNQDPEAVDEDRSTEPDRLQVF [ATE1], the protein stability index stood at 4.54 ± 0.18 under setting [1] and 4.55 ± 0.2 under setting [2].

For the sequence CRKCIASSGCFMEYLENQVIKDKD [RNF180], the protein stability index runs as follows: under setting [1], 2.42 ± 0.26; under setting [2], 2.5 ± 0.41. For CRLINEDVNEQVMQVLGPEDLQSI [CEP70], the protein stability index reads like this: under setting [1], 3.65 ± 0.32; under setting [2], 3.54 ± 0.28. In turn, CSNLTPNVPNVCRMYCSDLLNPNL [SPACA3] registered a protein stability index under setting [1] of 2.62 ± 0.55 and a protein stability index under setting [2] of 2.42 ± 0.45.

Turning to CSVFPATDAPEQFISQVTVLKYFS [PLK2], the protein stability index by setting is: under setting [1], 2.49 ± 0.55; under setting [2], 2.56 ± 0.5. Take CTQLGSLSALKHAVLGLYLLVFLI [SCARA5]: the protein stability index was determined as 2.16 ± 0.24 under setting [1] and 2.05 ± 0.23 under setting [2].

As to CVKNELLPSHPLELSEKNFQLNQD [POMP], the protein stability index was determined as 4.42 ± 0.1 under setting [1] and 4.57 ± 0.14 under setting [2].

Consider CVLVPRADLRLGGQPAPPQLLLGR [SMAD6], for which the protein stability index worked out at 2.5 ± 0.5 under setting [1] and 2.65 ± 0.099 under setting [2].

In turn, CVSRNSHLTSVTSESEQEFLYKTA [CD207] returned a protein stability index under setting [1] of 3.34 ± 0.51 and a protein stability index under setting [2] of 3.81 ± 0.17. As to DAQLLPHHSLQAHFRPRFHPLPTV [TMEM192], the protein stability index was 3.22 ± 0.18 under setting [1] and 3.22 ± 0.16 under setting [2].
